Laboratory results from publication PMC4287497, “Phosphorylation of Elp1 by Hrr25 Is Required for Elongator-Dependent tRNA Modification in Yeast” (PLoS Genetics, 2015).

Assays:
Kti12 [1] = molecular target: Kti12 (UniProt P34253); experiment: Elp2-myc IP of Elongator, anti-HA blot for Kti12; details: reference: wild type Elp1; sites S1209
Kti12 [2] = molecular target: Kti12 (UniProt P34253); experiment: GFP-trap IP of Elp1-GFP, anti-HA blot, densitometry; details: reference: wild type Elp1-GFP; sites S1209
Elp1-S1209A-GFP = molecular target: T1, Elp1-S1209A-GFP (S. cerevisiae, UniProt Q06706 1-1349, S1209A); experiment: co-IP; GFP-tagged Elp1 (genomic locus) precipitated with GFP-trap from yeast extracts; Western blot with anti-GFP and anti-HA; densitometry of Kti12-HA normalised to Elp1-GFP, wild type set to 1.0; details: partners not purified
T1 construct: Elp1 (Iki3), S. cerevisiae; also called mutant Elp1-GFP fusion; source: S. cerevisiae, expressed from its genomic locus, in cell extract
T1 sequence (looked up): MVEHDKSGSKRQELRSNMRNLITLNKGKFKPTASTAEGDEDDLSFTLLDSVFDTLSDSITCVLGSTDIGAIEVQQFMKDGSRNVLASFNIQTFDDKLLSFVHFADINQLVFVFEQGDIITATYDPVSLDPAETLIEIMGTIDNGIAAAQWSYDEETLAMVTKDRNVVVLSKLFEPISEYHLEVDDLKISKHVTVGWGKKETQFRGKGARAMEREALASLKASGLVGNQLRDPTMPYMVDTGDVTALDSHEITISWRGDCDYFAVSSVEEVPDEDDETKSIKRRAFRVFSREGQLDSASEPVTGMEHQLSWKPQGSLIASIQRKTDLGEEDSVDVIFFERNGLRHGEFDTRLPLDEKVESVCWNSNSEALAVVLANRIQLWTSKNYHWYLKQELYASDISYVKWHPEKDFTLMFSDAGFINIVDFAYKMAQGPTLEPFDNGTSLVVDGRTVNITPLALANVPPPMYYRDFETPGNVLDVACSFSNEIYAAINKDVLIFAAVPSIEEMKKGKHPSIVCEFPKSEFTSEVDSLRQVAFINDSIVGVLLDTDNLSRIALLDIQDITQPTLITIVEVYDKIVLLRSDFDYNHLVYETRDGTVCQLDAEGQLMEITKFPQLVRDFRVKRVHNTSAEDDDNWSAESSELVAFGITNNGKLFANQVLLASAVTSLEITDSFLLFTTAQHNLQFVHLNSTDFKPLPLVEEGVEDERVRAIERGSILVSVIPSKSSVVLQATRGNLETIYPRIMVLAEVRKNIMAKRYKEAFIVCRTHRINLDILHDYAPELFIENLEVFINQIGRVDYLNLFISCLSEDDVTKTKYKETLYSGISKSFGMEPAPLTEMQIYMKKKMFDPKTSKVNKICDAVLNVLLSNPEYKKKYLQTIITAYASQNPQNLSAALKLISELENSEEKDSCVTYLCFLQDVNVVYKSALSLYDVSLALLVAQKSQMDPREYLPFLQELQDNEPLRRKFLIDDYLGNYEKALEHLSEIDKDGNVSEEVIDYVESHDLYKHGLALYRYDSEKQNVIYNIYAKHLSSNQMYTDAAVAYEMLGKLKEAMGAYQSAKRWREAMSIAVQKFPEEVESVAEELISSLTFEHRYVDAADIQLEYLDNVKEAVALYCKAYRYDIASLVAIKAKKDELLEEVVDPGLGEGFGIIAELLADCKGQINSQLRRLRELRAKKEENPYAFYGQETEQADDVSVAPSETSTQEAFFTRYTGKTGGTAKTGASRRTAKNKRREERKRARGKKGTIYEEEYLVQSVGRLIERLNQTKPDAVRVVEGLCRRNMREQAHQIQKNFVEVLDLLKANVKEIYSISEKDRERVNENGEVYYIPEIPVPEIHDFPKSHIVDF

In the case of “Elp1 (Iki3) (from UniProt Q06706) S1209A”, the “binding against the reference” value (Kti12 [1]) is reported as “stronger”.

For “Elp1 (Iki3) (from UniProt Q06706) S1209A Elp1-GFP”, the fold change (Kti12 [2]) was “stronger; reference 1.0”.

B1: Kti12-HA6 (natural protein, S. cerevisiae, UniProt P34253 1-313, looked up)
chain: MPLVLFTGYPCSGKTTLAKHLVQLLQSKIDATPSLSKYSITYHSDESLGIKHSDYITSQDERKLRSEIISAVKRDLSKNKIVIVDSLNYIKGFRYQLHCEVKNLSTTFCVIQTLCPPETIFEWNKTSNPNPWEPELLNQLIQRYEEPNSSNRWDSPLFAILTPQDNITDYIDDICKVVFQTSKSAKNSGHNDPLSKGLQKPNSATVLKPASQSNFIQVLDIETSKIIKTIMNHIKSLTSIGGVSNGTRVIVSEGITDINDDGCFFVDLPIGNVVTLAQLQRLKRQFINFNKLRDIDQDRIGPLFADYLNKNLN
notes: Kti12, accessory protein of Elongator, S. cerevisiae; also called HA-tagged Kti12; source: S. cerevisiae KTI12-HA6 strains, in cell extract
In the case of B1, the “Kti12 co-precipitated, fold of wild-type Elp1” value (Elp1-S1209A-GFP) is reported as ~2 fold of wild-type Elp1.
